Data reported in paper PMC2148147 (The Journal of Cell Biology, 1998).

T1: Cdc3p (S. cerevisiae, UniProt P32457 1-520)
T1 sequence: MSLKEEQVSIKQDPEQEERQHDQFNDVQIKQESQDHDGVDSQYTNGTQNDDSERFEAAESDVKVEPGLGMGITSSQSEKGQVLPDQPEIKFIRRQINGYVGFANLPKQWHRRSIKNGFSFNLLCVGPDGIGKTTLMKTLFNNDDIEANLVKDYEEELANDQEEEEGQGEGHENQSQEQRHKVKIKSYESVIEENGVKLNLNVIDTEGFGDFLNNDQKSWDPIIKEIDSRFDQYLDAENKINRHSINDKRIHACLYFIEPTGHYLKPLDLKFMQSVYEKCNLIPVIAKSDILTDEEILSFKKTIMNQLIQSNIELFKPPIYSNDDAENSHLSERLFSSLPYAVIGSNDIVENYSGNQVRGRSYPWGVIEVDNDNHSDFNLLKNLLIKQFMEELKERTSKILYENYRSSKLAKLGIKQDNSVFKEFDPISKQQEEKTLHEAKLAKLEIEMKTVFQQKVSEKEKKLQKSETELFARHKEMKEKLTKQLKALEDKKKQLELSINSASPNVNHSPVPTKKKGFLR

B1: Cdc10p (natural protein)
chain: MDPLSSVQPASYVGFDTITNQIEHRLLKKGFQFNIMVVGQSGLGKSTLINTLFASHLIDSATGDDISALPVTKTTEMKISTHTLVEDRVRLNINVIDTPGFGDFIDNSKAWEPIVKYIKEQHSQYLRKELTAQRERFITDTRVHAILYFLQPNGKELSRLDVEALKRLTEIANVIPVIGKSDTLTLDERTEFRELIQNEFEKYNFKIYPYDSEELTDEELELNRSVRSIIPFAVVGSENEIEINGETFRGRKTRWSAINVEDINQCDFVYLREFLIRTHLQDLIETTSYIHYEGFRARQLIALKENANSRSSAHMSSNAIQR
B2: Cdc11p (natural protein)
chain: MSGIIDASSALRKRKHLKRGITFTVMIVGQSGSGRSTFINTLCGQQVVDTSTTILLPTDTSTEIDLQLREETVELEDDEGVKIQLNIIDTPGFGDSLDNSPSFEIISDYIRHQYDEILLEESRVRRNPRFKDGRVHCCLYLINPTGHGLKEIDVEFIRQLGSLVNIIPVISKSDSLTRDELKLNKKLIMEDIDRWNLPIYNFPFDEDEISDEDYETNMYLRTLLPFAIIGSNEVYEMGGDVGTIRGRKYPWGILDVEDSSISDFVILRNALLISHLHDLKNYTHEILYERYRTEALSGESVAAESIRPNLTKLNGSSSSSTTTRRNTNPFKQSNNINNDVLNPASDMHGQSTGENNETYMTREEQIRLEEERLKAFEERVQQELLLKRQELLQREKELREIEARLEKEAKIKQEE
B3: Cdc12p (natural protein)
chain: MSAATATAAPVPPPVGISNLPNQRYKIVNEEGGTFTVMLCGESGLGKTTFINTLFQTVLKRADGQQHRQEPIRKTVEIDITRALLEEKHFELRVNVIDTPGFGDNVNNNKAWQPLVDFIDDQHDSYMRQEQQPYRTKKFDLRVHAVLYFIRPTGHGLKPIDIETMKRLSTRANLIPVIAKADTLTAQELQQFKSRIRQVIEAQEIRIFTPPLDADSKEDAKSGSNPDSAAVEHARQLIEAMPFAIVGSEKKFDNGQGTQVVARKYPWGLVEIENDSHCDFRKLRALLLRTYLLDLISTTQEMHYETYRRLRLEGHENTGEGNEDFTLPAIAPARKLSHNPRYKEEENALKKYFTDQVKAEEQRFRQWEQNIVNERIRLNGDLEEIQGKVKKLEEQVKSLQVKKSHLK

Biological target: T1, Cdc3p
Test: SEC + other: sucrose gradient sedimentation

| Binder | stoichiometry N |
| --- | --- |
| B1 | ~1 Cdc10p per Cdc3p (2:2) |
| B2 | ~0.5 Cdc11p per Cdc3p (1:2) |
| B3 | ~1 Cdc12p per Cdc3p (2:2) |
